First the molecules themselves.
B1: AHP31319 fully human antibody (antibody, IgG1, V domains shown, not shown: a dimerising Fc or GST)
VH: EVQLVQSGGGLVQPGGSLRLSCAGSGSSFSLAVMGWYRQAPGRQRELVGIISSAAGTNYADSVKGRFTISRDDAKNTLYLQMNSLTAEDTAVYYCWRGAVPGDPYGRWGQGTTVTVSS
VL: EIVMTQSPGTLSLSPGEGATLSCRASQSVSNNYLAWYQQKHGQAPRLLIYGASSRATGIPDRFSGSGSGTDFTLTINRLEPEDFALYYCQQYGNSPGTFGQGTKVDIK
B2: AHP30005 fully human antibody (antibody, IgG1, V domains shown, not shown: a dimerising Fc or GST)
VH: QVQLVDSGGGLVQAGGSLSVSCAVSGRTALTYAVGWFRQAPGKERDFVAGINWSGSMTNYADSVKGRFTISRDNQKNTVYLQMNSLKPEDTAVYYCAATRTAITMPPQRDGVDYWGKGTTVTVSS
VL: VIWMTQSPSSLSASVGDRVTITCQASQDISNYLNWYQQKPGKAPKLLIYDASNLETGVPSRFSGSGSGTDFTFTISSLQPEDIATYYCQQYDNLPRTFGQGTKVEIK
B3: AHP30019 fully human antibody (antibody, IgG1, V domains shown, not shown: a dimerising Fc or GST)
VH: B1 VH with E1Q, T113L
VL: EIVLTQSPLSLPVTLGQPASISCRSSQSLVHSDGNTYLNWFQQRPGQPPRRLIYEVSNRDSGVPDRFSGSGSGTDFTLKISRVEAEDVGVYYCMQGTHWPWTFGQGTKVEIK
B4: Avelumab (antibody, V domains shown)
VH: EVQLLESGGGLVQPGGSLRLSCAASGFTFSSYIMMWVRQAPGKGLEWVSSIYPSGGITFYADTVKGRFTISRDNSKNTLYLQMNSLRAEDTAVYYCARIKLGTVTTVDYWGQGTLVTVSS
VL: QSALTQPASVSGSPGQSITISCTGTSSDVGGYNYVSWYQQHPGKAPKLMIYDVSNRPSGVSNRFSGSKSGNTASLTISGLQAEDEADYYCSSYTSSSTRVFGTGTKVTVLG

Changes are numbered by the printed parent chain.

One may read the IC50 as the point on the concentration scale where inhibition reaches its midpoint. As a reminder, the EC50 is the midpoint of the concentration-response curve. The term Kd denotes the free concentration of one partner at which half of the binding sites on the other are occupied at equilibrium, for simple one-to-one binding. As a reminder, the koff is the first-order rate constant of dissociation. Usually kon stands for the second-order rate constant of association.

T4 sequence (G7PSE7 entry or part of it, one chain of several): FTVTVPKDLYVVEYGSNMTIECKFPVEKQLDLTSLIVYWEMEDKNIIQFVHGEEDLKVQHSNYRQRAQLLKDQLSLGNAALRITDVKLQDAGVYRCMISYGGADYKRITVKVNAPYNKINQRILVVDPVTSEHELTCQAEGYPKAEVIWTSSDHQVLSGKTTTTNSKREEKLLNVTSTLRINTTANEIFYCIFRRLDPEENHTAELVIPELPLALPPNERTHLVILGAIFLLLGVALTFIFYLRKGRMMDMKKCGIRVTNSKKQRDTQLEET

The target in the first assay is T1, recombinant human PD-L1-His protein (GenScript, Z03425) (human, UniProt Q9NZQ7 19-238).
T1 construct: Bought protein; also called recombinant human PD-L1 protein; human PD-L1 antigen protein; not shown: His tag
T1 sequence (Q9NZQ7 19-238 limits assumed, one chain of several): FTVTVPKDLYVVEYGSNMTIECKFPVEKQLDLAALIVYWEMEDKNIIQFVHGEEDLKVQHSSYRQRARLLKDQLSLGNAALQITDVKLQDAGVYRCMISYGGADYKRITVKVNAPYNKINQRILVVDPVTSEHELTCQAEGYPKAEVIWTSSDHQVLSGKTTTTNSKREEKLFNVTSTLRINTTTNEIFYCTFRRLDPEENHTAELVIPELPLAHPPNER
The assay is described as follows: competition ELISA on coated human PD-L1-His; row antibody titrated, competitor biotinylated Avelumab detected. In general terms: ELISA stands for enzyme-linked immunosorbent assay.
Consider B1, for which the IC50 was found to be 8.97 nM.
Still for that read-out and setting: the same measure for B2: 1.34 nM.

The target in the next assay is T2, mouse PD-L1 on a stable cell line (Probio, M00567) (mouse, UniProt Q9EP73 19-290).
T2 construct: whole, on cells; also called cells expressing mouse PD-L1
T2 sequence (Q9EP73 19-290, one chain of several): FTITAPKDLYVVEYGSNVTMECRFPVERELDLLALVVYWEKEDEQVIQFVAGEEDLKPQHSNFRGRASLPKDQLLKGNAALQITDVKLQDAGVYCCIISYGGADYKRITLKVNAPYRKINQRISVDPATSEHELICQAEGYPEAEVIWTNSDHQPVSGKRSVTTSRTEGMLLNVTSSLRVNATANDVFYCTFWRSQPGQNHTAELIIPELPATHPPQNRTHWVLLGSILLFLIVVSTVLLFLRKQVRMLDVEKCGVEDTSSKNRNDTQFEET
The assay is described as follows: FACS on stable cell line expressing mouse PD-L1.
In turn, B3 yielded an EC50 of 31.8 nM.
Same read-out and setting: for B1 the value was 0.746 nM; for B2, 0.184 nM.

A further assay has as its target T1, recombinant human PD-L1-His protein …. The assay is described as follows: competition ELISA on coated human PD-L1-His; row antibody titrated, competitor biotinylated Tecentriq detected.
Consider B3, for which the IC50 came to 0.972 nM.
Same read-out and setting: for B1 the value was 96.1 nM.
As for B2, the IC50 turned out to be 2.81 nM.

For the next assay the target is unchanged. The assay is described as follows: indirect ELISA, plate coated with recombinant human PD-L1-His.
As for B3, the EC50 stood at 4.26 nM.
B1: the 50% effective concentration (EC50) is 0.173 nM.
Consider B2, for which the EC50 turned out to be 0.275 nM.

The target in the next assay is T3, human PD-L1 on a stable cell line (Probio, RD00868) (human, UniProt Q9NZQ7 19-290).
T3 construct: whole, on cells; also called cells expressing human PD-L1
T3 sequence (Q9NZQ7 19-290): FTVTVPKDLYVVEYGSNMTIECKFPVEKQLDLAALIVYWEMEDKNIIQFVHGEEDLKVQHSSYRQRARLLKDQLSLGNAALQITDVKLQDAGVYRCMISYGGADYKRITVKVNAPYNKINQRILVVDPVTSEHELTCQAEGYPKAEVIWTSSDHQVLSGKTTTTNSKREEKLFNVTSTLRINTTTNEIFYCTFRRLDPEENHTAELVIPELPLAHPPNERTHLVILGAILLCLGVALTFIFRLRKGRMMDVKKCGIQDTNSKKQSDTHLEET
The experiment in a line: FACS on stable cell line expressing human PD-L1.
As for B3, the concentration giving a half-maximal response (EC50) stood at 15.9 nM.
Still for that read-out and setting: the same measure for B1: 0.977 nM.
The same measure, in the same setting: for B2 the value was 0.193 nM.

The target in a further assay is T1, recombinant human PD-L1-His protein …. The experiment in a line: SPR, Biacore 8K, antibody Fc-captured, human PD-L1-His as analyte. (In general: In SPR one partner is held on a chip, and binding of the other changes the refractive index at the surface.)
For B3, the Kd amounted to 50.3 nM, the dissociation rate constant (koff) turned out to be 0.00146 s⁻¹ and the kon was 29000 M⁻¹ s⁻¹.
The like results for B1 were, in that order, 5.08 nM, 0.000848 s⁻¹ and 167000 M⁻¹ s⁻¹.
Regarding B2, the Kd was 0.305 nM, the koff stood at 0.000425 s⁻¹ and the kon came out at 1.39e+06 M⁻¹ s⁻¹.

A further assay addresses T4, cynomolgus monkey PD-L1 on a stable cell line (Probio, M00573) (cynomolgus monkey, UniProt G7PSE7 19-290).
T4 construct: whole, on cells; also called cells expressing monkey PD-L1
The assay is described as follows: FACS on stable cell line expressing cynomolgus monkey PD-L1.
Molecule B3 registered a half-maximal effective concentration (EC50) of 43.5 nM.
Still for that read-out and setting: for B1 the value was 1.34 nM; for B4, 0.894 nM.
Molecule B2 showed an EC50 of 0.725 nM.

Values taken from patent EP4806918A1 (Nanjing Probio Biotech Co., Ltd., dated 2026).
